The values below come from US20230220035A1 (DONG-A ST CO., LTD., published 2023).

*1 amine or outer side, *2 acyl side, *3 side chain or, on linkers, in order; H or OH if unused. Side-chain parts run from the residue outwards. [ ]: non-standard residue; d: D form. The star is where a group is joined. C18 diacid = O=C(O)CCCCCCCCCCCCCCCCC(=O)*; γGlu = O=C(O)[C@H](CCC(=O)[*:2])N[*:1]; C14 diacid = O=C(O)CCCCCCCCCCCCC(=O)*; Stearoyl = CCCCCCCCCCCCCCCCCC(=O)*; AEEA = NCCOCCOCC(=O)O; Aib = CC(C)(N)C(=O)O

Series [1] addresses GLP-1 receptor (Homo sapiens, UniProt P43220). The series can be described thus: Human GLP-1 receptor activation assay (CRE-luciferase). The conditions noted are these: for Emax: CHO-K1, 6 h, read-out: GLP-1 receptor Maximum activation (% vs GLP-1); for EC50: CHO-K1 cells transiently transfected, luciferase, 6 hours, 0.1% BSA. Also on record: host or cells: CHO-K1. The series is classed as cell-based. On the procedure:
(§1) Then, the resulting increased luciferase activity was evaluated as a measurement of the effect on each receptor activation.
(§2) For positive control, endogenous ligand GLP-1 or glucagon was used for respective evaluation. The above-mentioned acylated oxyntomodulin peptide analogs of Comparative Example 8-12 were synthesized and used as comparative examples.
(§3) After 3 hours of transfection, medium was exchanged to Alpha Minimal Essential Medium (α-MEM) comprising 10% fetal bovine serum (FBS). Next day, the medium was exchanged to α-MEM comprising the acylated oxyntomodulin peptide analog of the present invention and 0.1% bovine serum albumin (BSA). After 6 hours, dual luciferase assay reagent (Promega) was added in the same amount as the medium in which the cells were submerged, and firefly luciferase and Renilla luciferase activities were successively measured. Firefly luciferase activity values were corrected against Renilla luciferase activity to yield transfection efficiency.

The target in series [2] is glucagon receptor (Homo sapiens, UniProt P47871). The series can be described thus: Human glucagon receptor activation assay (CRE-luciferase). The conditions noted are these: CHO-K1 cells transiently transfected; for Emax: 6 h, relative to glucagon, read-out: GCG receptor Maximum activation (% vs GCG); for EC50: 6 hours, 0.1% BSA, read-out: GCG receptor EC50. Also on record: host or cells: CHO-K1. The series is classed as cell-based. The method, then: as §1, §2, §3
Sequence of glucagon receptor (P47871 26-477): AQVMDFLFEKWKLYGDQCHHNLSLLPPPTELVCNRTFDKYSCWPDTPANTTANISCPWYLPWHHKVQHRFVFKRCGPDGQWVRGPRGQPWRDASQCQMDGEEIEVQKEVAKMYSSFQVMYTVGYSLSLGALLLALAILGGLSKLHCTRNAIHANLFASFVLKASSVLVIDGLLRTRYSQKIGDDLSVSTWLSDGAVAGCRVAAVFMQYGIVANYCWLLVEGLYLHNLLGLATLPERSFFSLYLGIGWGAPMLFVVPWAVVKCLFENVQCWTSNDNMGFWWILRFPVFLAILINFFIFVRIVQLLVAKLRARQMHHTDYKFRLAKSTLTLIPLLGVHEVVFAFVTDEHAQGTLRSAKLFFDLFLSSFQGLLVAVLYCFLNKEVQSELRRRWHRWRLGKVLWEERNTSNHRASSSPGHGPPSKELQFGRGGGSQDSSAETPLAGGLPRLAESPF

Series [3] can be described thus: in vivo. The settings on record: cynomolgus monkey, sc.
From the text: Cynomolgus monkeys were used to evaluate the pharmacokinetics in monkeys of the acylated oxyntomodulin peptide analogs according to the present invention.
Series [4] addresses Human GLP-1 receptor (human, UniProt P43220). The series can be described thus: cell-based or functional assay.
Series [5] addresses Human glucagon receptor (human, UniProt P47871). The series can be described thus: cell-based or functional assay.

One may read the EC50 as the concentration giving half of the maximal effect. Broadly, the half-life is how long it takes for the measured level to halve.

Sequence of GLP-1 receptor (P43220 24-463): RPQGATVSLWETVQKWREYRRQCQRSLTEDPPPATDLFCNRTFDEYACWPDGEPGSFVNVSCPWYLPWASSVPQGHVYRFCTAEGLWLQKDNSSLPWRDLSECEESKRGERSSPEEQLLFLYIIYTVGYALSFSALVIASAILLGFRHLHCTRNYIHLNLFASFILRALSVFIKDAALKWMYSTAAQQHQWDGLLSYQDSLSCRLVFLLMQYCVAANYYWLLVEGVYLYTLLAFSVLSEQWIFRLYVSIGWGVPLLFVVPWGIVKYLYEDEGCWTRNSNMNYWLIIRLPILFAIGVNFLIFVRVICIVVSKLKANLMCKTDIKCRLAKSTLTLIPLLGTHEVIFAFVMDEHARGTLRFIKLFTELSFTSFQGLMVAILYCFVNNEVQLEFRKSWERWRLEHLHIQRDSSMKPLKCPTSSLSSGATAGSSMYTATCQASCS

In the case of `CCCCCCCCCCCCCCCCCC(=O)N[C@@H](CCC(=O)NCCOCCOCC(=O)NCCOCCOCC(=O)NCCCC[C@H](NC(=O)[C@H](CC(=O)O)NC(=O)[C@H](CO)NC(=O)[C@@H](NC(=O)[C@H](Cc1ccccc1)NC(=O)[C@@H](NC(=O)CNC(=O)[C@H](CCC(N)=O)NC(=O)C(C)(C)NC(=O)[C@@H](N)Cc1c[nH]cn1)[C@@H](C)O)[C@@H](C)O)C(=O)N[C@@H](CO)C(=O)N[C@@H](CCCCN)C(=O)N[C@@H](Cc1ccc(O)cc1)C(=O)N[C@@H](CC(C)C)C(=O)N[C@@H](CC(=O)O)C(=O)NC(C)(C)C(=O)N[C@@H](CCCNC(=N)N)C(=O)N[C@@H](CCCNC(=N)N)C(=O)N[C@@H](C)C(=O)N[C@@H](CCC(N)=O)C(=O)N[C@@H](CC(=O)O)C(=O)N[C@@H](Cc1ccccc1)C(=O)N[C@H](C(=O)N[C@@H](CCC(N)=O)C(=O)N[C@@H](Cc1c[nH]c2ccccc12)C(=O)N[C@@H](CC(C)C)C(=O)N[C@@H](CCSC)C(=O)N[C@@H](CC(N)=O)C(=O)N[C@H](C(=O)N[C@@H](CCCCN)C(=O)N[C@@H](CCC(=O)O)C(=O)N[C@@H](Cc1ccc(O)cc1)C(=O)N[C@@H](CCC(=O)O)C(=O)N[C@@H](CCCCNC(=O)CCCCCCCCCCCCC(N)=O)C(=O)N[C@@H](CCC(=O)O)C(=O)N[C@@H](Cc1ccc(O)cc1)C(=O)N[C@@H](CCC(=O)O)C(=O)O)[C@@H](C)O)C(C)C)C(=O)O` [Compound 10], the Emax came out at 105% in series [1] and 110% in series [2]. Moreover, the EC50 in series [1] and in series [2] was below 100 pM each time. Also, the values for the half-life in series [3] (Monkey PK (S.C. half-life)) and in series [3] (monkey PK half-life) were below 6 h and below 12 h, respectively.

As for `CCCCCCCCCCCCCCCCCC(=O)N[C@@H](CCC(=O)NCCOCCOCC(=O)NCCOCCOCC(=O)NCCCC[C@H](NC(=O)[C@H](CC(=O)O)NC(=O)[C@H](CO)NC(=O)[C@@H](NC(=O)[C@H](Cc1ccccc1)NC(=O)[C@@H](NC(=O)CNC(=O)[C@H](CCC(N)=O)NC(=O)C(C)(C)NC(=O)[C@@H](N)Cc1c[nH]cn1)[C@@H](C)O)[C@@H](C)O)C(=O)N[C@@H](CO)C(=O)N[C@@H](CCCCN)C(=O)N[C@@H](Cc1ccc(O)cc1)C(=O)N[C@@H](CC(C)C)C(=O)N[C@@H](CC(=O)O)C(=O)NC(C)(C)C(=O)N[C@@H](CCCNC(=N)N)C(=O)N[C@@H](CCCNC(=N)N)C(=O)N[C@@H](C)C(=O)N[C@@H](CCC(N)=O)C(=O)N[C@@H](CC(=O)O)C(=O)N[C@@H](Cc1ccccc1)C(=O)N[C@H](C(=O)N[C@@H](CCC(N)=O)C(=O)N[C@@H](Cc1c[nH]c2ccccc12)C(=O)N[C@@H](CC(C)C)C(=O)N[C@@H](CCSC)C(=O)N[C@@H](CC(N)=O)C(=O)N[C@H](C(=O)N[C@@H](CCCCN)C(=O)N[C@@H](CCC(=O)O)C(=O)N[C@@H](Cc1ccc(O)cc1)C(=O)N[C@@H](CCC(=O)O)C(=O)N[C@@H](CCCCNC(=O)[C@@H](N)CCCCNC(=O)COCCOCCNC(=O)COCCOCCNC(=O)COCCOCCNC(=O)CC[C@H](NC(=O)CCCCCCCCCCCCCCCCC(=O)O)C(=O)O)C(=O)N[C@@H](CCC(=O)O)C(=O)N[C@@H](Cc1ccc(O)cc1)C(=O)N[C@@H](CCC(=O)O)C(=O)O)[C@@H](C)O)C(C)C)C(=O)O` [Compound 6], the Emax in series [1] amounted to 83.8%; in series [2], 89.1%. Further, the EC50 in series [1] and in series [2] was 100 to 1000 pM each time. Further, the half-life fell in the range of 12 to 18 h in series [3] (Monkey PK (S.C. half-life)) and 12 to 24 h in series [3] (monkey PK half-life).

With H-H[Aib]QGTFTSDK([AEEA-AEEA-γGlu-Stearoyl])SKYLD[Aib]RRAQDFVQWLMNTKEYEK([Lys-AEEA-AEEA-AEEA-γGlu-C18 diacid])EYE-OH [Compound 6], in series [4], the “Maximum activation (% vs GLP-1)” value amounted to 83.8%. Also, in series [5], the “Maximum activation (% vs GCG)” value was determined as 89.1%.

B1: Compound 1 (peptide)
peptide: H-H[Aib]QGTFTSDK([AEEA-AEEA-γGlu-Stearoyl])SKYLD[Aib]RRAQDFVQWLMNTKEYEK(C14 diacid)EYE-OH
SMILES: CCCCCCCCCCCCCCCCCC(=O)N[C@@H](CCC(=O)NCCOCCOCC(=O)NCCOCCOCC(=O)NCCCC[C@H](NC(=O)[C@H](CC(=O)O)NC(=O)[C@H](CO)NC(=O)[C@@H](NC(=O)[C@H](Cc1ccccc1)NC(=O)[C@@H](NC(=O)CNC(=O)[C@H](CCC(N)=O)NC(=O)C(C)(C)NC(=O)[C@@H](N)Cc1c[nH]cn1)[C@@H](C)O)[C@@H](C)O)C(=O)N[C@@H](CO)C(=O)N[C@@H](CCCCN)C(=O)N[C@@H](Cc1ccc(O)cc1)C(=O)N[C@@H](CC(C)C)C(=O)N[C@@H](CC(=O)O)C(=O)NC(C)(C)C(=O)N[C@@H](CCCNC(=N)N)C(=O)N[C@@H](CCCNC(=N)N)C(=O)N[C@@H](C)C(=O)N[C@@H](CCC(N)=O)C(=O)N[C@@H](CC(=O)O)C(=O)N[C@@H](Cc1ccccc1)C(=O)N[C@H](C(=O)N[C@@H](CCC(N)=O)C(=O)N[C@@H](Cc1c[nH]c2ccccc12)C(=O)N[C@@H](CC(C)C)C(=O)N[C@@H](CCSC)C(=O)N[C@@H](CC(N)=O)C(=O)N[C@H](C(=O)N[C@@H](CCCCN)C(=O)N[C@@H](CCC(=O)O)C(=O)N[C@@H](Cc1ccc(O)cc1)C(=O)N[C@@H](CCC(=O)O)C(=O)N[C@@H](CCCCNC(=O)CCCCCCCCCCCCC(=O)O)C(=O)N[C@@H](CCC(=O)O)C(=O)N[C@@H](Cc1ccc(O)cc1)C(=O)N[C@@H](CCC(=O)O)C(=O)O)[C@@H](C)O)C(C)C)C(=O)O
For the molecule B1, in series [4], the EC50 was below 100 pM and the “Maximum activation (% vs GLP-1)” value is 102%. In series [5], the EC50 is below 100 pM and the “Maximum activation (% vs GCG)” value is 107%.

B2: Compound 3 (peptide)
peptide: H-H[Aib]QGTFTSDK([AEEA-AEEA-γGlu-Stearoyl])SKYLD[Aib]RRAQDFVQWLMNTKEYEK(C18 diacid)EYE-OH
SMILES: CCCCCCCCCCCCCCCCCC(=O)N[C@@H](CCC(=O)NCCOCCOCC(=O)NCCOCCOCC(=O)NCCCC[C@H](NC(=O)[C@H](CC(=O)O)NC(=O)[C@H](CO)NC(=O)[C@@H](NC(=O)[C@H](Cc1ccccc1)NC(=O)[C@@H](NC(=O)CNC(=O)[C@H](CCC(N)=O)NC(=O)C(C)(C)NC(=O)[C@@H](N)Cc1c[nH]cn1)[C@@H](C)O)[C@@H](C)O)C(=O)N[C@@H](CO)C(=O)N[C@@H](CCCCN)C(=O)N[C@@H](Cc1ccc(O)cc1)C(=O)N[C@@H](CC(C)C)C(=O)N[C@@H](CC(=O)O)C(=O)NC(C)(C)C(=O)N[C@@H](CCCNC(=N)N)C(=O)N[C@@H](CCCNC(=N)N)C(=O)N[C@@H](C)C(=O)N[C@@H](CCC(N)=O)C(=O)N[C@@H](CC(=O)O)C(=O)N[C@@H](Cc1ccccc1)C(=O)N[C@H](C(=O)N[C@@H](CCC(N)=O)C(=O)N[C@@H](Cc1c[nH]c2ccccc12)C(=O)N[C@@H](CC(C)C)C(=O)N[C@@H](CCSC)C(=O)N[C@@H](CC(N)=O)C(=O)N[C@H](C(=O)N[C@@H](CCCCN)C(=O)N[C@@H](CCC(=O)O)C(=O)N[C@@H](Cc1ccc(O)cc1)C(=O)N[C@@H](CCC(=O)O)C(=O)N[C@@H](CCCCNC(=O)CCCCCCCCCCCCCCCCC(=O)O)C(=O)N[C@@H](CCC(=O)O)C(=O)N[C@@H](Cc1ccc(O)cc1)C(=O)N[C@@H](CCC(=O)O)C(=O)O)[C@@H](C)O)C(C)C)C(=O)O
Consider B2, for which the “Maximum activation (% vs GLP-1)” value in series [4] came to 98.3%. Besides, the “Maximum activation (% vs GCG)” value in series [5] stood at 98.3%.

As to H-H[Aib]QGTFTSDK([AEEA-AEEA-γGlu-Stearoyl])SKYLD[Aib]RRAQDFVQWLMNTKEYEK([Lys-C18 diacid])EYE-OH [Compound 4], the “Maximum activation (% vs GLP-1)” value in series [4] was 87.9%. Also, in series [5], the EC50 is at least 1000 pM and the “Maximum activation (% vs GCG)” value is 95.4%.

B3: Compound 5 (peptide)
peptide: H-H[Aib]QGTFTSDK([AEEA-AEEA-γGlu-Stearoyl])SKYLD[Aib]RRAQDFVQWLMNTKEYEK([AEEA-AEEA-AEEA-γGlu-C18 diacid])EYE-OH
SMILES: CCCCCCCCCCCCCCCCCC(=O)N[C@@H](CCC(=O)NCCOCCOCC(=O)NCCOCCOCC(=O)NCCCC[C@H](NC(=O)[C@H](CC(=O)O)NC(=O)[C@H](CO)NC(=O)[C@@H](NC(=O)[C@H](Cc1ccccc1)NC(=O)[C@@H](NC(=O)CNC(=O)[C@H](CCC(N)=O)NC(=O)C(C)(C)NC(=O)[C@@H](N)Cc1c[nH]cn1)[C@@H](C)O)[C@@H](C)O)C(=O)N[C@@H](CO)C(=O)N[C@@H](CCCCN)C(=O)N[C@@H](Cc1ccc(O)cc1)C(=O)N[C@@H](CC(C)C)C(=O)N[C@@H](CC(=O)O)C(=O)NC(C)(C)C(=O)N[C@@H](CCCNC(=N)N)C(=O)N[C@@H](CCCNC(=N)N)C(=O)N[C@@H](C)C(=O)N[C@@H](CCC(N)=O)C(=O)N[C@@H](CC(=O)O)C(=O)N[C@@H](Cc1ccccc1)C(=O)N[C@H](C(=O)N[C@@H](CCC(N)=O)C(=O)N[C@@H](Cc1c[nH]c2ccccc12)C(=O)N[C@@H](CC(C)C)C(=O)N[C@@H](CCSC)C(=O)N[C@@H](CC(N)=O)C(=O)N[C@H](C(=O)N[C@@H](CCCCN)C(=O)N[C@@H](CCC(=O)O)C(=O)N[C@@H](Cc1ccc(O)cc1)C(=O)N[C@@H](CCC(=O)O)C(=O)N[C@@H](CCCCNC(=O)COCCOCCNC(=O)COCCOCCNC(=O)COCCOCCNC(=O)CC[C@H](NC(=O)CCCCCCCCCCCCCCCCC(=O)O)C(=O)O)C(=O)N[C@@H](CCC(=O)O)C(=O)N[C@@H](Cc1ccc(O)cc1)C(=O)N[C@@H](CCC(=O)O)C(=O)O)[C@@H](C)O)C(C)C)C(=O)O
Consider B3, for which the “Maximum activation (% vs GLP-1)” value in series [4] amounted to 93.6%. Moreover, the “Maximum activation (% vs GCG)” value in series [5] amounted to 99.4%.
